Assays:
Assay in all cases: purified protein
Format in all cases: biochemical, Thermus thermophilus
Settings in all cases: pH 7.5, 47.5 °C, 10% (v/v) isopropanol, enzyme prediluted in 50 mM phosphate
purified protein [1] = substrate: CCCCCCCCCC(=O)Oc1ccc([N+](=O)[O-])cc1
purified protein [2] = substrate: CCCCCCCCCCCCCC(=O)Oc1ccc([N+](=O)[O-])cc1
purified protein [3] = substrate: CCCCCCCC(=O)Oc1ccc([N+](=O)[O-])cc1
purified protein [4] = substrate: CCCCCCCCCCCC(=O)Oc1ccc([N+](=O)[O-])cc1

B1: KLEST-3S esterase (E34Tt, N-terminally truncated ∆N16 variant) (Thermus thermophilus HB27) (protein)
chain: QGLEAFWKAVEVPGGVCADGSPYRFYVSPGDPRKVVVDFQGGGACWDQATCGPESRTYRKRVDVQELYLAQGIYNRMSVANPFFGWTHVFVPYCTGDLHVGRATVDYGGFKVHHQGARNAQAALEYVFRNHTNPERVFVTGCSAGAYGAVLWADKILATYKNAQIAVCGDAGVGVVTEDFPGFTAWNPRLPELPGLSSPPKVSEIYRALAQAYPKAVLAQYTTLLDGTQIYFYALMKKEAAPSEATAREWAVAAERAVGFPASEANYTYYLAPGSQHCILPRPELYTLKVGEVSFLDWLRALAEGRTPPRVRP
notes: ∆N16 (putative secretion signal removed; printed cleavage site between residues 16 and 17); secreted by Kluyveromyces lactis NRRL-Y1140; cell-free medium concentrated by ultrafiltration, partially purified, essentially free of contaminant proteins
- Km (purified protein [1]): 90 ± 10 µM
- kcat/Km (purified protein [1]): 4.59e+07 M⁻¹ s⁻¹
- Km (purified protein [2]): 190 ± 40 µM
- kcat/Km (purified protein [2]): 322000 M⁻¹ s⁻¹
- Km (purified protein [3]): 130 ± 30 µM
- kcat/Km (purified protein [3]): 3.95e+07 M⁻¹ s⁻¹
- Km (purified protein [4]): 140 ± 30 µM
- kcat/Km (purified protein [4]): 2.34e+07 M⁻¹ s⁻¹
